{"source": "ChEMBL document CHEMBL1126368", "about": "“Carbocyclic phosphonate analogs of 2,3-dideoxyadenosine-5-monophosphate as substrates of 5-phosphoribosyl-1-pyrophosphate (PRPP) synthetate” (Bioorg Med Chem Lett, 1992)", "molecules": {"B1": {"name": "Ribose-phosphate pyrophosphokinase 1 (Homo sapiens), P60891 (protein)", "chain": "MPNIKIFSGSSHQDLSQKIADRLGLELGKVVTKKFSNQETCVEIGESVRGEDVYIVQSGCGEINDNLMELLIMINACKIASASRVTAVIPCFPYARQDKKDKSRAPISAKLVANMLSVAGADHIITMDLHASQIQGFFDIPVDNLYAEPAVLKWIRENISEWRNCTIVSPDAGGAKRVTSIADRLNVDFALIHKERKKANEVDRMVLVGDVKDRVAILVDDMADTCGTICHAADKLLSAGATRVYAILTHGIFSGPAISRINNACFEAVVVTNTIPQEDKMKHCSKIQVIDISMILAEAIRRTHNGESVSYLFSHVPL"}}, "key": {"[1]": {"assay": "Ratio (FA) of Vmax/Km of AMP to that of compound"}, "[2]": {"assay": "Ratio (FA) of Vmax/Km of the compound"}, "[3]": {"substrate": "Nc1ncnc2c1ncn2C1CCC(COP(=O)(O)O)O1", "assay": "Vmax as a substrate for per mg of Pyrophosphate Synthetase (PRPP)", "conditions": "Escherichia coli"}, "[4]": {"substrate": "Nc1ncnc2c1ncn2C1CCC(COP(=O)(O)O)O1", "assay": "Vmax as a substrate for 0.4 ug of Pyrophosphate Synthetase (PRPP) per assay", "conditions": "Escherichia coli"}, "[5]": {"substrate": "Nc1ncnc2c1ncn2C1CCC(COP(=O)(O)O)O1", "assay": "Km value as a substrate for 0.4 ug of Phosphribosyl Pyrophosphate Synthetase (PRPP) per assay", "conditions": "Escherichia coli"}, "[6]": {"substrate": "Nc1ncnc2c1ncn2C1O[C@H](COP(=O)(O)O)[C@H](O)[C@@H]1O", "assay": "(§1) Vmax as a substrate for Pyrophosphate Synthetase (PRPP)", "conditions": "Escherichia coli"}, "[7]": {"substrate": "Nc1ncnc2c1ncn2[C@H]1CC[C@@H](CCOP(=O)(O)O)C1", "assay": "as §1", "conditions": "Escherichia coli"}, "[8]": {"substrate": "Nc1ncnc2c1ncn2CCOCP(=O)(O)O", "assay": "as §1", "conditions": "Escherichia coli"}, "[9]": {"substrate": "Nc1ncnc2c1ncn2[C@H]1CC[C@@H](CC(F)(F)P(=O)(O)O)C1", "assay": "as §1", "conditions": "Escherichia coli"}, "[10]": {"substrate": "Nc1ncnc2c1ncn2CCCCCP(=O)(O)O", "assay": "as §1", "conditions": "Escherichia coli"}, "[11]": {"substrate": "Nc1ncnc2c1ncn2[C@@H]1C[C@H](CCP(=O)(O)O)C[C@@H]1O", "assay": "as §1", "conditions": "Escherichia coli"}, "[12]": {"substrate": "Nc1ncnc2c1ncn2[C@H]1CC[C@@H](CCP(=O)(O)O)C1", "assay": "as §1", "conditions": "Escherichia coli"}, "[13]": {"substrate": "Nc1ncnc2c1ncn2C1O[C@H](COP(=O)(O)O)[C@H](O)[C@@H]1O", "assay": "(§2) Km value as a substrate for Pyrophosphate Synthetase (PRPP)", "conditions": "Escherichia coli"}, "[14]": {"substrate": "Nc1ncnc2c1ncn2[C@H]1CC[C@@H](CCOP(=O)(O)O)C1", "assay": "as §2", "conditions": "Escherichia coli"}, "[15]": {"substrate": "Nc1ncnc2c1ncn2CCCCCP(=O)(O)O", "assay": "as §2", "conditions": "Escherichia coli"}, "[16]": {"substrate": "Nc1ncnc2c1ncn2[C@@H]1C[C@H](CCP(=O)(O)O)C[C@@H]1O", "assay": "as §2", "conditions": "Escherichia coli"}, "[17]": {"substrate": "Nc1ncnc2c1ncn2[C@H]1CC[C@@H](CCP(=O)(O)O)C1", "assay": "as §2", "conditions": "Escherichia coli"}}}
{"molecule": "Nc1ncnc2c1ncn2[C@H]1CC[C@@H](CCP(=O)(O)O)C1", "values": [{"measurement": "Ratio", "setting": "[1]", "result": 63}]}
{"molecule": "Nc1ncnc2c1ncn2C1CCC(COP(=O)(O)O)O1", "note": "(stereo unspecified)", "values": [{"measurement": "Ratio", "setting": "[2]", "result": 1}]}
{"molecule": "Nc1ncnc2c1ncn2[C@@H]1O[C@H](COP(=O)(O)O)[C@H](O)[C@@H]1O", "values": [{"measurement": "Ratio", "setting": "[1]", "result": 13}]}
{"molecule": "Nc1ncnc2c1ncn2CCCCCP(=O)(O)O", "values": [{"measurement": "Ratio", "setting": "[1]", "result": 32}]}
{"molecule": "Nc1ncnc2c1ncn2[C@@H]1C[C@H](CCP(=O)(O)O)C[C@@H]1O", "values": [{"measurement": "Ratio", "setting": "[1]", "result": 11}]}
{"molecule": "Nc1ncnc2c1ncn2[C@H]1CC[C@@H](CCOP(=O)(O)O)C1", "values": [{"measurement": "Ratio", "setting": "[1]", "result": 179}]}
{"molecule": "B1", "values": [{"measurement": "Vmax", "setting": "[3]", "result": 34.5, "unit": "µM/h"}, {"measurement": "Vmax", "setting": "[4]", "result": 100, "unit": "%"}, {"measurement": "Km", "setting": "[5]", "result": 290, "unit": "µM"}, {"measurement": "Vmax", "setting": "[6]", "result": 45, "unit": "%"}, {"measurement": "Vmax", "setting": "[7]", "result": 0.5, "unit": "%"}, {"measurement": "Vmax", "setting": "[8]", "result": 0.2, "unit": "%"}, {"measurement": "Vmax", "setting": "[9]", "result": 0.07, "unit": "%"}, {"measurement": "Vmax", "setting": "[10]", "result": 7.5, "unit": "%"}, {"measurement": "Vmax", "setting": "[11]", "result": 7.4, "unit": "%"}, {"measurement": "Vmax", "setting": "[12]", "result": 3, "unit": "%"}, {"measurement": "Km", "setting": "[13]", "result": 1700, "unit": "µM"}, {"measurement": "Km", "setting": "[14]", "result": 260, "unit": "µM"}, {"measurement": "Km", "setting": "[15]", "result": 690, "unit": "µM"}, {"measurement": "Km", "setting": "[16]", "result": 240, "unit": "µM"}, {"measurement": "Km", "setting": "[17]", "result": 550, "unit": "µM"}]}
